In US20130289246A1:

What was measured:
Test in all cases: cell-based or functional assay
[1] = target: HA of A/Alabama/1/1981 (H3N2) virus (Influenza A virus (H3N2))
[2] = target: HA of A/California/04/2009 (H1N1) virus (Influenza A virus (H1N1))
[3] = target: HA of A/Hong Kong/1/1968 (H3N2) virus (Influenza A virus (H3N2)) (UniProt Q91MA7)
[4] = target: HA of A/Vietnam/1203/2004 (H5N1) virus (Influenza A virus (H5N1))

## murine hybridoma mAb S139/1 (antibody)
[1]
  HAI activity: > 50 µg/mL
[2]
  HAI activity: > 50 µg/mL
[3]
  HAI activity: < 0.2 µg/mL
[4]
  HAI activity: > 50 µg/mL
